# In US20240409639A1 (CELLDEX THERAPEUTICS, published 2024):
# B1: bispecific construct CDX-585 (bispecific antibody, human IgG1, kappa)
# heavy: QVQLVQSGAEVVKPGASVKISCKASGYTFTDYVMHWVRQAPGQSLEWMGVISTYHIPAVYNQKFKGKATMTVDTSTSTVYLELSSLRSEDTAVYYCAREVYGESYYFDVWGQGTTVTVSSASTKGPSVFPLAPSSKSTSGGTAALGCLVKDYFPEPVTVSWNSGALTSGVHTFPAVLQSSGLYSLSSVVTVPSSSLGTQTYICNVNHKPSNTKVDKKVEPKSCDKTHTCPPCPAPEAQGGPSVFLFPPKPKDTLYITREPEVTCVVVDVSHEDPEVKFNWYVDGVEVHNAKTKPREEQYNSTYRVVSVLTVLHQDWLNGKEYKCQVSNKALPAPIEKTISKAKGQPREPQVYTLPPSRDELTKNQVSLTCLVKGFYPSDIAVEWESNGQPENNYKTTPPVLDSDGSFFLYSKLTVDKSRWQQGNVFSCSVMHEALHNHYTQKSLSLSPGKGSSGGGGSDIQMTQSPSSLSASVGDRVTITCRASENIYSYLAWYQQKPGKAPKFLVYNADTLAEGVPSRFSGSGSGTDFTLTISSLQPEDFATYYCQHHYGTPFTFGCGTKLEIKGGGGSGGGGSGGGGSGGGGSQVQLVQSGAEVKKPGASVKVSCKASGYSFTGYTMHWVRQAPGQCLEWMGLINPYTGGTDYNQKFQGRVTMTVDRSTSTAYMELSSLRSEDTAVYYCARERPGGSQFIYYYALDYWGQGTTVTVSS
# light: DIVMTQTPLSLPVTPGEPASISCRSSQSIVHSAGNTYLEWYLQKPGQSPQLLIYKVSNRFSGVPDRFSGSGSGTDFTLKISRVEAEDVGVYYCFQGSHVPYTFGGGTKVEIKRTVAAPSVFIFPPSDEQLKSGTASVVCLLNNFYPREAKVQWKVDNALQSGNSQESVTEQDSKDSTYSLSSTLTLSKADYEKHKVYACEVTHQGLSSPVTKSFNRGEC
# notes: Tetravalent format, bivalent for each target; The Fc carries L234A, L235Q, K322Q (AQQ) and M252Y, S254T, T256 (YTE); The scFv is stabilised by a disulfide from Gly to Cys at positions 558 and 629 of the mature heavy chain; also called E1A9-7B1; bsAb
# Columns and labels:
# [1] = target: T1, recombinant human PD-1-msFc (human, UniProt Q15116 25-167, limits assumed); assay: ELISA, plate coated with recombinant human PD-1-msFc
# T1 construct: not shown: mouse Fc ('msFc')
# Procedure: Microtiter plates were coated with recombinant human PD-1-msFc in PBS, and then blocked with 5% bovine serum albumin in PBS. […] The plates were washed with PBS/Tween and then incubated with a goat-anti-human IgG Fc-specific polyclonal reagent conjugated to horseradish peroxidase at 37° C. After washing, the plates were developed with HRP substrate, and analyzed at OD 450 using a microtiter plate reader.
# [2] = target: T2, human PD-1 expressed on cells (human, UniProt Q15116 25-288); assay: flow cytometry on HEK293 cells expressing human PD-1
# T2 construct: whole, on cells; also called HEK293 cells expressing human PD-1; PD1 Effector cells
# Procedure: After 20 minutes, the cells were washed with PBS containing 0.1% BSA and 0.05% NaN₃ (PBA) and the bound antibodies were detected by incubating the cells with a PE labeled goat anti-human IgG Fc-specific probe. The excess probe was washed from the cells with PBA and the cell associated fluorescence was determined by analysis using a FACSCanto II™ instrument (BD Biosciences, NJ, USA) according to the manufacturer's directions.
# T1 sequence (Q15116 25-167 limits assumed): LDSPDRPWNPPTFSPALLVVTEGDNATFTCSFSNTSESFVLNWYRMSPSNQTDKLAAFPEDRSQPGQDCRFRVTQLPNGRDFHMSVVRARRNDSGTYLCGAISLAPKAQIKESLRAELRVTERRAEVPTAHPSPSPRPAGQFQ
# T2 sequence (Q15116 25-288): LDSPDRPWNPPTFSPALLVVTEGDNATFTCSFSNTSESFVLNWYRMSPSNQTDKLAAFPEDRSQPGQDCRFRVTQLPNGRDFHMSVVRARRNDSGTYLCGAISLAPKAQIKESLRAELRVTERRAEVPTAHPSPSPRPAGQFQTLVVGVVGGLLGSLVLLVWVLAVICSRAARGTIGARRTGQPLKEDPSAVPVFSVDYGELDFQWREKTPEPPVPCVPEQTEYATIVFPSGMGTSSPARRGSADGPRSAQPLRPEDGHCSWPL
binder,measurement,setting,value
B1,binding result,[1],binds
same,binding result,[2],binds
